Measurements taken from patent US20210171647A1 (WUXI BIOLOGICS SHANGHAI, published 2021).
Positions count from the first letter of the chain named.

Assays:
Assay in all cases: ELISA, antibody coated, OX40-ECD.His mutant supernatant; relative to silent alanine substitutions;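 further: captured OX40 mutant protein detected with HRP-labelled anti-His antibody, absorbance read-out, scaled to the mean signal of control mutants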
human OX40-ECD.His Y72A = biological target: T1, human OX40-ECD.His Y72A (human, UniProt P43489 29-214)
T1 construct: extracellular domain; not shown: C-terminal His-tag
T1 sequence (looked up): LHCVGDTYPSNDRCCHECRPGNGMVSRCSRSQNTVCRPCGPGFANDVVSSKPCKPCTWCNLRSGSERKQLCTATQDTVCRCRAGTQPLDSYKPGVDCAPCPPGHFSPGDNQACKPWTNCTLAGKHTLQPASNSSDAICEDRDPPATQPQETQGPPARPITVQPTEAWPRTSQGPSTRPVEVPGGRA

human OX40-ECD.His K96A = biological target: T2, human OX40-ECD.His K96A (human, UniProt P43489 29-214)
T2 construct: extracellular domain; not shown: C-terminal His-tag
T2 sequence (looked up): T1 sequence (looked up) with A44Y, K68A

human OX40-ECD.His V76A = biological target: T3, human OX40-ECD.His V76A (human, UniProt P43489 29-214)
T3 construct: extracellular domain; not shown: C-terminal His-tag
T3 sequence (looked up): T1 sequence (looked up) with A44Y, V48A

human OX40-ECD.His T62A = biological target: T4, human OX40-ECD.His T62A (human, UniProt P43489 29-214)
T4 construct: extracellular domain; not shown: C-terminal His-tag
T4 sequence (looked up): T1 sequence (looked up) with T34A, A44Y

human OX40-ECD.His T35A = biological target: T5, human OX40-ECD.His T35A (human, UniProt P43489 29-214)
T5 construct: extracellular domain; not shown: C-terminal His-tag
T5 sequence (looked up): T1 sequence (looked up) with T7A, A44Y

human OX40-ECD.His E94A = biological target: T6, human OX40-ECD.His E94A (human, UniProt P43489 29-214)
T6 construct: extracellular domain; not shown: C-terminal His-tag
T6 sequence (looked up): T1 sequence (looked up) with A44Y, E66A

human OX40-ECD.His S118A = biological target: T7, human OX40-ECD.His S118A (human, UniProt P43489 29-214)
T7 construct: extracellular domain; not shown: C-terminal His-tag
T7 sequence (looked up): T1 sequence (looked up) with A44Y, S90A

human OX40-ECD.His N50A = biological target: T8, human OX40-ECD.His N50A (human, UniProt P43489 29-214)
T8 construct: extracellular domain; not shown: C-terminal His-tag
T8 sequence (looked up): T1 sequence (looked up) with N22A, A44Y

human OX40-ECD.His S91A = biological target: T9, human OX40-ECD.His S91A (human, UniProt P43489 29-214)
T9 construct: extracellular domain; not shown: C-terminal His-tag
T9 sequence (looked up): T1 sequence (looked up) with A44Y, S63A

human OX40-ECD.His P115A = biological target: T10, human OX40-ECD.His P115A (human, UniProt P43489 29-214)
T10 construct: extracellular domain; not shown: C-terminal His-tag
T10 sequence (looked up): T1 sequence (looked up) with A44Y, P87A

Fold Change (human OX40-ECD.His Y72A): 0.384
Fold Change (human OX40-ECD.His K96A): 0.949
Fold Change (human OX40-ECD.His V76A): 1.02
Fold Change (human OX40-ECD.His T62A): 0.923
Fold Change (human OX40-ECD.His T35A): 1.02
Fold Change (human OX40-ECD.His E94A): 0.716
Fold Change (human OX40-ECD.His S118A): 0.969
Fold Change (human OX40-ECD.His N50A): 0.961
Fold Change (human OX40-ECD.His S91A): 0.886
Fold Change (human OX40-ECD.His P115A): 0.632
B1: 1.134.9-u1-IgG1L (antibody, V domains shown)
VH: QVQLQESGPGLVKPSGTLSLTCAVSGGSISSYNWWSWVRQPPGKGLEWIGEIYHGGNTNYNPSLKSRVTMSVDNSKNQFSLKLSSVTAADTAVYYCARAPGDWGGSPYFDFWGQGTLVTVSS
VL: SSELTQDPAVSVALGQTVRITCQGDNLRTYYASWYQQKPGQAPILLIYGRNKRPSGIPDRFSGSSSGNTASLTITGAQAEDEAAYYCNSRDSSGNPVVFGGGTKLTVL
notes: fully human IgG1, lambda
